Biological target: T1, endogenous MGR (Mus musculus (C2C12 myoblasts)) (UniProt D2EAC2)
T1 sequence: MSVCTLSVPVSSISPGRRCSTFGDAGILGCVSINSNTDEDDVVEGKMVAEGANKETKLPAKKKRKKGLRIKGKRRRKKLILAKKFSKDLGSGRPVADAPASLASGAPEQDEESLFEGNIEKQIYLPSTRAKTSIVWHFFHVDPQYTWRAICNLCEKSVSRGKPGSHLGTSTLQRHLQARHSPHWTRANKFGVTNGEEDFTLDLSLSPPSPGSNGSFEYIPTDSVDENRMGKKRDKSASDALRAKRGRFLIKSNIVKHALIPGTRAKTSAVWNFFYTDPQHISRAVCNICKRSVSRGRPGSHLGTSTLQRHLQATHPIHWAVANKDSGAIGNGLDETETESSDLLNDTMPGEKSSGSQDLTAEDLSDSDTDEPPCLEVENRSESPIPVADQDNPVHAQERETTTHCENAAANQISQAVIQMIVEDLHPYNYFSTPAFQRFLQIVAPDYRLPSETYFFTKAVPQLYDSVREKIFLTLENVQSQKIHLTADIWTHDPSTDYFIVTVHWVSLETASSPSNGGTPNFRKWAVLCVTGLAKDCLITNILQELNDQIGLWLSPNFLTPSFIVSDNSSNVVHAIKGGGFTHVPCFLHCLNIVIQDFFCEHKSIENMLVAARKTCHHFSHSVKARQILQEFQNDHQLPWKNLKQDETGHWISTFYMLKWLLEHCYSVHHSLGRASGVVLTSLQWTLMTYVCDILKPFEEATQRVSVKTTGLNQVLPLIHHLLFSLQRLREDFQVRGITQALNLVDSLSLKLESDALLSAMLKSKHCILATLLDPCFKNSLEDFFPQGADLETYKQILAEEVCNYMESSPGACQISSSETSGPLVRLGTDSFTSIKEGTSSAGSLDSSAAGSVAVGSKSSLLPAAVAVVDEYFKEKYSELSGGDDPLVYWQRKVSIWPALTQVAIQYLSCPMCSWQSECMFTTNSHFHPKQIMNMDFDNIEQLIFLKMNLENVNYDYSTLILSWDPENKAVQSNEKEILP
Test: pull-down, SILAC MS

With “TTCAAAACTGCAGGATCCTTCGCCTAGGCTCGCAGCGCGGGAGCGA / AATCGCTCCCGCGCTGCGAGCCTAGGCGAAGGATCCTGCAGTTTTG [porcine IGF2 q (pulldown)]” as the sequence, how does the binding signal (SILAC ratio q/Q) read?
Its binding signal (SILAC ratio q/Q) is 5.5.

Source: publication PMC2854606
